Patent US20220033501A1 (SHANGHAI PHARMAEXPLORER, published 2022)
Changes are numbered by the printed parent chain.

T1: murine TIM-3 extracellular domain protein with hFc tag (mTIM-3-hFc) (mouse, UniProt Q8VIM0 29-191)
T1 construct: also called mouse TIM-3 extracellular domain protein; not shown: human IgG Fc fragment (hFc) of the pCpC vector
T1 chain: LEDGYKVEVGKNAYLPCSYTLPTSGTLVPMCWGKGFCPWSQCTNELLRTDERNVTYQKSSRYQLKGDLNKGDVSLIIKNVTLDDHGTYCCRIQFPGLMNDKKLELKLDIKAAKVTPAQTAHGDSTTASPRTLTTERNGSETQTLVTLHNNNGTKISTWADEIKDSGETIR

T2: monkey TIM-3 extracellular domain protein with hFc tag (cTIM-3-hFc) (monkey)
T2 construct: not shown: human IgG Fc fragment (hFc) of the pCpC vector
T2 chain: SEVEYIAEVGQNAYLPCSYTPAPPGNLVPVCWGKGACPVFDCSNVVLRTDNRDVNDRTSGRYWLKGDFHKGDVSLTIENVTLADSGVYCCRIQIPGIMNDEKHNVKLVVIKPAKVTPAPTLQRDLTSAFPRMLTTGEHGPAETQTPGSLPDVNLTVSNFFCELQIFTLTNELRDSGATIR

T3: human TIM-3 extracellular domain protein with hFc tag (hTIM-3-hFc) (human, UniProt Q8TDQ0 22-200)
T3 construct: not shown: human IgG Fc fragment (hFc) of the pCpC vector
T3 sequence: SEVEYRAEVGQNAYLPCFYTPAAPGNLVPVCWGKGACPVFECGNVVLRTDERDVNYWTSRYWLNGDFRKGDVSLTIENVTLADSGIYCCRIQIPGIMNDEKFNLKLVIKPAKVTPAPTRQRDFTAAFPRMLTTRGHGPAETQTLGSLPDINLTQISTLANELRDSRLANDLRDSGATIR

B1: 34B6D8 fully human TIM-3 antibody (human IgG4, kappa) (antibody, V domains shown)
VH: EVQLVESGGGLVQPGGSLRLSCAASGFTFSTYWMTWVRQAPGKRLEWVANIKQGGGDKYYVDSVKGRFTISTDNAKNSLYLQMNSLRAEDTAVYYCARGSNWFDPWGQGTLVTVSS
VL: EIVMTQSPATLSMSPGERATLSCRASQSVYDNLAWYQQKPGQAPRLLIYGASTRATGIPARFSGSGSGTEFTLTISSLQSEDFALYYCQQYTHWPITFGQGTRLEIK
B2: 7A4F10 fully human TIM-3 antibody (human IgG4, kappa) (antibody, V domains shown)
VH: EVQLLESGGGLVQPGGSLRLSCAASGFTFRTHLISWVRQAPGKGLEWVAAITGSGGSTYYADSVKGRFIISRDNSKNTLFLQMNSLRAEDTAVYYCAKDGGSGSYDDFWGQGTLVTVSS
VL: ETVLTQSPVTLSLSPGERATLSCRASQSVGSYLAWYQQKPGQAPRLLIYDASNRATGIPARFSGSGSGTDFTLTISSLEPEDFAVYYCQQRSNWPPTFGQGTKVEIK
B3: 57F4E5 fully human TIM-3 antibody (human IgG4, kappa) (antibody, V domains shown)
VH: EVQLVESGGGLVQPGGSLRLSCAASGFTFSSYWMSWVRQAPGKGLEWVANIKQDGSEKYYVDSVKGRFTISRDSAKNSLYLQMNSLRAEDTAMYFCARDSNFFDYWGQGTLVTVSS
VL: ETVMTQSPATLSVSPGERATLSCRASQSVSSNLAWYQRKPGQAPRLLIYFSSTRATGIPARFSGSGSGTEFTLTISSLQSEDFAVYYCQQYNNWPLTFGGGTKVEIK
B4: 39E5H1 fully human TIM-3 antibody (human IgG4, kappa) (antibody, V domains shown)
VH: B1 VH with T31S, T35S, R44G, Q53R, G56S, D57E, K58R, T72G, L79V
VL: B1 VL with I2T, T10I, M13V, D31S, P40L, G50D, L85V, T92N, H93N
B5: 134H3G6 fully human TIM-3 antibody (human IgG4, kappa) (antibody, V domains shown)
VH: EVQLVESGGGLVQPGGSLRLSCAASGFTFSNSWMTWVRQAPGKGLEWVANIKQAGTEKYYVDSVKGRFTISRDNAKNSLYLQMNSLRAEDTAVYYCNSGSNYFDYWGQGTLVTVSS
VL: B3 VL with T2I, S26R, S28N, V29F, S30Y, R38Q, F50G, S51A
B6: 18D2H2 fully human TIM-3 antibody (human IgG4, kappa) (antibody, V domains shown)
VH: B1 VH with G10D, K43R, R44G, G54D, G56S, D57A, I70L, T72R, N74D, P105Y
VL: B3 VL with S26N, S28N, S30Y, R38Q, F50D, S51A, I58F
B7: 215A8F2 fully human TIM-3 antibody (human IgG4, kappa) (antibody, V domains shown)
VH: QVQLQQWGAGLLKPSETLSLTCTVYGGSFSGYYWNWIRQPPGKGLEWLGEINHSGSTNYNPSLKRRVTISVDTSKNQFSLKLSSVTAADTAVYYCARVYYYGPFDFWGQGTLVTVSS
VL: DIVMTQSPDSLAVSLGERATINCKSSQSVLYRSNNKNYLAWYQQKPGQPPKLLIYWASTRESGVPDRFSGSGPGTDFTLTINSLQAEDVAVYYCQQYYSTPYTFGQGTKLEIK

Columns and labels:
[1] = biological target: T1, murine TIM-3 extracellular domain …; test: ELISA, coated mouse TIM-3 ECD protein, 0.0001 nM antibody
[2] = biological target: T1, murine TIM-3 extracellular domain …; test: ELISA, coated mouse TIM-3 ECD protein, 0.0667 nM antibody
[3] = biological target: T2, monkey TIM-3 extracellular domain …; test: ELISA, coated monkey TIM-3 ECD protein, 0.6667 nM antibody
[4] = biological target: T3, human TIM-3 extracellular domain …; test: FACS, blocking of hTIM-3-hFc binding to phosphatidylserine on apoptotic Jurkat cells, 200 nM antibody
Protocol: (§1) Jurkat cells were treated with 1 μM staurosporine at 37° C. for 2 hours to induce apoptosis. The presence of phosphatidylserine was detected by Annexin V-FITC cell apoptosis detection kit. […] The cells were washed 1-2 times with PBS buffer, and after cell counting, the cells were diluted to 1-2×10⁶ cells per milliliter with binding buffer, and added to a 96-well FACS reaction plate at 100 microliters per well. The antibody sample to be tested and 2 μg/ml hTIM-3-hFc protein were prepared with binding buffer, and mixed equally in volume. The mixture was incubated at room temperature for 30 minutes, then the FACS reaction plate incubated with apoptotic cells was centrifuged to discard the supernatant, and the above mixture was added to the apoptotic cells at 100 microliters per well and incubated at room temperature for 1 hour. The plate was washed twice with the binding buffer by centrifugation, added with 100 microliters of fluorescent (Alexa 488)-labeled secondary antibodies per well, and incubated for half an hour. The plate was washed 2-3 times with the binding buffer by centrifugation, added with 100 microliters of PBS per well to suspend cells, and detected using FACS (FACS Calibur, BD) and the results were analyzed. The results are shown in Table 15 and FIG. 15, wherein the IgG control is human IgG, and the data in the table is the inhibition rate (%).

[5] = biological target: T3, human TIM-3 extracellular domain …; test: FACS, blocking of hTIM-3-hFc binding to phosphatidylserine on apoptotic Jurkat cells, 0.274 nM antibody
Protocol: as §1

[6] = biological target: T3, human TIM-3 extracellular domain …; test: FACS, blocking of hTIM-3-hFc binding to phosphatidylserine on apoptotic Jurkat cells, 0.823 nM antibody
Protocol: as §1

[7] = biological target: T3, human TIM-3 extracellular domain …; test: FACS, blocking of hTIM-3-hFc binding to phosphatidylserine on apoptotic Jurkat cells, 22.222 nM antibody
Protocol: as §1

[8] = biological target: T3, human TIM-3 extracellular domain …; test: FACS, blocking of hTIM-3-hFc binding to phosphatidylserine on apoptotic Jurkat cells, 66.667 nM antibody
Protocol: as §1

Binder	OD450 [1]	OD450 [2]	OD450 [3]	Inhibition ratio (%) [4]	Inhibition ratio (%) [5]	Inhibition ratio (%) [6]	Inhibition ratio (%) [7]	Inhibition ratio (%) [8]
B1	0.23	0.25	3.37	–	–	–	–	–
B2	0.22	0.22	2.46	56.9%	0.9%	5.7%	62.1%	60.5%
B3	0.24	0.33	3.15	–	–	–	–	–
B4	0.23	0.24	3.23	–	–	–	–	–
B5	0.22	0.21	3.1	37.6%	8%	6.1%	58.4%	52.3%
B6	0.21	0.22	3.16	56.1%	5.4%	3.9%	63.9%	62.3%
B7	0.21	0.31	3.05	52.1%	0.3%	-4.4%	61.8%	57.2%
